# From the RNAGym collection of RNA variant scans (doi:10.7554/elife.80360)
# B1: HDV Ribozyme (parent)
# chain: GGCCGGCAUGGUCCCAGCCUCCUCGCUGGCGCCGGCUGGGCAACAUUCCGAGGGGACCGUCCCCUCGGUAAUGGCGAAUGGGACCCA
# Variants of: B1
# Assay: self-cleavage, relative activity (ratio to wild type); higher = more cleavage; co-transcriptional
row,Variant,self-cleavage
1,C58U A77U,0.68
2,C58U A77G,0.929
3,C57U C62G,1.25
4,C57U C62U,0.799
5,G59U G80U,0.19
6,G59U G80A,0.295
7,U60A U72C,0.415
8,U60A U72G,0.467
9,G59U G67C,0.963
10,C57U C86U,0.991
11,C57U C86G,0.862
12,C58U A70G,1.01
13,C58U A70C,0.831
14,C58U A70U,1.29
15,G59C G81U,0.415
16,C58A U69G,1.04
17,C58A U69A,1.07
18,C58A A70U,1
19,C58U C66A,1.22
20,C58U C66U,0.911
21,G59A G81C,0.228
22,G59A G81U,0.249
23,G59A A78G,0.631
24,G59A A78U,0.346

row,Variant,self-cleavage
1,C57U G74C,0.208
2,C57U G74A,0.501
3,U60A C61U,1.15
4,U60A C61A,0.742
5,G59C C86U,1.01
6,G59C C86G,1.06
7,G59C C86A,0.914
8,G59C C63G,0.909
9,C58G G73A,0.406
10,G59C A87G,0.99
11,G59C A87C,1.08
12,C57U U72G,0.587
13,C58U G76A,1.08
14,C58U G76C,0.935
15,C58U G76U,1.02
16,C58G C86U,1.25
17,C57U A77C,0.415
18,C58G U60A,1.06
19,C58A A77C,0.482
20,C58A A77G,1.09
21,C58A A77U,0.78
22,C58G C63G,0.91
23,C58U G80U,0.132
24,G59C C64G,0.892

row,Variant,self-cleavage
1,G59C C64A,0.946
2,C57U A78G,0.639
3,C57U A78U,0.119
4,G59C C62U,1.12
5,U60A G68U,1.11
6,U60A G68A,0.917
7,G59C A70U,1.03
8,G59C A70C,1.07
9,G59A C61U,1.11
10,G59A C61G,1.07
11,G59C C75G,0.189
12,G59C C75U,0.233
13,C57U G73A,0.891
14,C58U U69G,0.965
15,C58U G82C,0.386
16,C58U G82A,0.906
17,C58G U65G,1.16
18,C58G U65C,0.782
19,C58G C75U,0.122
20,C58G C75A,0.196
21,C58A C62U,1.08
22,C58A C62G,1.19
23,C58A G74C,0.324
24,C58U C85U,0.945

row,Variant,self-cleavage
1,C58U C85G,1.07
2,U60A G76A,1
3,U60A A70U,1.06
4,C58A U65C,1.19
5,U60A C63U,0.972
6,U60A C63A,0.849
7,C58A U60C,1.17
8,C58A U60G,0.831
9,C58G A87G,0.874
10,C58U A71U,1.16
11,U60A U69G,1.01
12,U60A U69A,0.793
13,C57U G59C,0.89
14,C57U G59A,1.07
15,C58A G73C,0.68
16,C58A G73U,0.383
17,U60A A71C,0.73
18,C58A U79A,0.789
19,C58U C75U,0.302
20,C58U C75A,0.095
21,C58G C84U,0.721
22,G59C G74C,0.0678
23,G59C G74A,0.635
24,C57U C61G,0.967

row,Variant,self-cleavage
1,G59U C75U,0.145
2,C57U C63A,1.01
3,G59A A83G,0.748
4,G59A A83U,0.59
5,G59A A83C,0.554
6,G59C C85G,0.955
7,G59C C85A,0.937
8,U60A C75G,0.0978
9,G59A A77G,0.867
10,C58G C64G,0.853
11,C57U G80A,0.148
12,G59A G76U,1.21
13,G59A G76C,0.854
14,G59U U72G,0.776
15,G59U U72C,0.599
16,C58A A83C,0.723
17,C58A A83G,0.707
18,C58U C61U,0.954
19,C58U C61A,1.21
20,G59C U65C,1.01
21,C58G C85A,1.05
22,G59U A83C,0.34
23,G59A A71C,0.743
24,C58A C64A,0.962

row,Variant,self-cleavage
1,G59A G67A,0.979
2,G59A A70U,0.941
3,G59A A70G,1.2
4,G59A G68U,0.92
5,G59A G68C,0.969
6,G59A U65C,1.14
7,G59A U65G,0.801
8,C58A A71U,1.05
9,C58A A71C,0.831
10,C58U G59U,1.05
11,C58U C84U,0.731
12,C58U C84A,1.02
13,G59U C86G,0.975
14,G59U C86A,0.855
15,U60A C62U,1.08
16,U60A C62A,0.886
17,C58U U79A,1.07
18,C58G C62G,0.639
19,C58G C62U,0.73
20,C58U G81A,0.584
21,C58U G81C,0.31
22,C58U G81U,0.289
23,C58A G82A,0.614
24,U60A G81A,0.514

row,Variant,self-cleavage
1,C57U G67A,0.906
2,G59C A83G,0.917
3,C57U A83G,0.808
4,G59U C62U,1.07
5,G59U C62G,0.748
6,G59U C62A,0.831
7,C57U G81A,0.415
8,C57U G81C,0.0604
9,G59A C62A,0.678
10,G59A C62G,0.502
11,C58G G80U,0.0903
12,G59U G76U,1.08
13,G59U G68C,0.973
14,C58G G81U,0.26
15,C58G G81C,0.364
16,C58G A78G,0.723
17,C58G A78U,0.277
18,C58G A83C,0.386
19,C58G A83G,0.633
20,C58G A83U,0.776
21,G59A C66U,0.849
22,G59A C66G,1.11
23,C58U A78C,0.305
24,C58U A78U,0.277

row,Variant,self-cleavage
1,G59U U69A,0.85
2,G59U U69G,1.14
3,C57U C64U,0.845
4,C58U G67A,0.909
5,G59C C66G,1.14
6,G59A C85G,1.13
7,G59A C85A,1.1
8,U60A C85A,0.831
9,C57U U60G,0.702
10,C57U U60C,0.906
11,G59A C86U,0.793
12,G59A C86G,1.01
13,G59C G73C,0.575
14,G59U U60A,1.21
15,G59U C64G,1.13
16,G59U C64U,1.05
17,C58G U79A,0.571
18,G59A C84A,0.929
19,C58A U72A,0.883
20,C58A U72C,0.802
21,C58A U72G,1.09
22,C58G G82C,0.302
23,C58G G82A,0.277
24,G59U U79C,0.563

row,Variant,self-cleavage
1,G59U U79G,0.692
2,U60A U65C,1.08
3,U60A U65G,1.09
4,G59U G82C,0.228
5,G59U G82A,0.338
6,U60A A78U,0.249
7,U60A A78C,0
8,U60A A78G,0.808
9,C57U U65C,0.895
10,G59C G82C,0.522
11,G59A U60C,1.12
12,G59A U60G,0.956
13,U60A G73C,0.532
14,U60A G73A,0.751
15,U60A A77C,0.305
16,G59C C84U,0.774
17,G59C C84A,0.912
18,G59C G76C,1.19
19,G59C G76A,0.767
20,C57U A71U,1.08
21,C57U A71C,0.923
22,C57U G68A,1.02
23,C57U G68C,0.85
24,C57U G68U,1.17

row,Variant,self-cleavage
1,G59A G82A,0.466
2,G59A G82C,0.208
3,G59A A87G,1.04
4,G59A A87C,0.974
5,C58G G68A,1.03
6,C58G G68C,0.748
7,C57U G82U,0.234
8,C58G A71G,1.07
9,C58G A71U,0.779
10,C58A C84A,0.644
11,C58A C84G,0.764
12,C58A C84U,0.919
13,C58U G73A,0.7
14,C58A C86A,1.19
15,C58A C86G,0.909
16,U60A C86G,0.851
17,C58A G80C,0.0707
18,G59U A78C,0.113
19,G59U A78U,0.285
20,U60A G82U,0.35
21,U60A G82C,0.148
22,G59U U65G,0.914
23,G59U U65A,0.912
24,G59U G74A,0.46

row,Variant,self-cleavage
1,G59U G74C,0.271
2,G59U G74U,0.502
3,U60A A87G,0.823
4,G59C G68A,0.906
5,G59C U79A,0.987
6,G59C U79C,0.431
7,G59C U79G,0.712
8,C58U U72C,0.415
9,C58U U72G,0.431
10,C58U U72A,0.58
11,C58U C64A,0.867
12,C57U C85U,1.11
13,C57U C85A,0.698
14,C57U C66U,0.87
15,U60A C84U,0.793
16,U60A C84A,0.911
17,C57U C84U,0.856
18,C57U C84A,0.748
19,C58A G76U,1.05
20,C58A G76C,1.1
21,G59C A71C,0.677
22,G59C A71G,0.831
23,C58U G68C,0.95
24,C58U G68U,1.07

row,Variant,self-cleavage
1,C58A A78C,0.108
2,C58A A78G,0.697
3,C58U A83U,0.453
4,C58U A83G,0.681
5,C58U A83C,0.403
6,G59U C85U,0.935
7,G59U C85G,0.695
8,G59U C85A,0.749
9,C58A G68U,1.04
10,C58G G74C,0.101
11,G59U G73C,0.614
12,G59U G73U,0.516
13,C58A C75U,0.158
14,C58A C75A,0.201
15,C58U C86U,0.969
16,C58U C86G,0.895
17,C58U C86A,1.01
18,G59U C84G,0.731
19,G59U C84U,0.865
20,G59A G74U,0.561
21,U60A U79A,0.923
22,G59C A78G,0.778
23,G59C A78C,0.179
24,U60A G80U,0.299

row,Variant,self-cleavage
1,C58G C61A,1.14
2,C57U U69G,1.27
3,G59C G80U,0.244
4,C58G C66U,1.01
5,G59A U69C,0.846
6,G59C U60G,1.16
7,G59C A77C,0.101
8,C58U G74A,0.462
9,G59A C63A,1.07
10,C58A G59A,1.1
11,C58A G59C,0.904
12,G59C U69G,1.11
13,G59C U69A,1.27
14,G59A C75G,0.177
15,G59A C75U,0.159
16,G59A C75A,0.163
17,G59U A71G,1.13
18,C57U C58A,1.13
19,G59C U72G,0.675
20,G59C U72A,0.773
21,G59C U72C,0.917
22,G59U G81C,0.223
23,G59U G81A,0.361
24,C58U C63G,0.831

row,Variant,self-cleavage
1,C58U C63A,0.986
2,G59U C66G,0.981
3,C58A G81U,0.397
4,C58A G81C,0.128
5,C58A C85A,0.877
6,C58A C85G,0.957
7,C57U U79G,0.73
8,C57U U79A,0.752
9,G59A G80C,0.226
10,C58U C62U,0.867
11,C58U C62A,0.969
12,C58A C66A,0.959
13,C57U A87U,1.01
14,C58A C61A,1.23
15,G59U C61U,0.997
16,G59U A77C,0.453
17,G59U A77U,0.47
18,C58U U60G,1.2
19,G59C C61G,0.927
20,G59C C61A,0.969
21,G59C C61U,1.01
22,C58A G67A,0.745
